In patent US5466669A, “Immunostimulatory agent” (Morinaga Milk Industry Co., Ltd., priority 1993, dated 1995):

What was measured:
Format in all cases: cell-based
[1] = system: rat peritoneal mast cells; test: Test 1: histamine release from rat peritoneal mast cells induced by calcium ionophore A23187; conditions: for Histamine release (Relative %): A23187 5 μM, control (saline) = 100; for activity to promote the release of histamine from mast cells induced by A23187 (in words): 1 to 100 ppm
Procedure: This test was performed to study the activity of the peptide of the present invention to promote the release of histamine from rat peritoneal mast cells induced by the calcium ionophore A23187.
Peritoneal cells were collected from Wistar rats after intraperitoneal injection of phosphate-buffered saline (consisting of 120 mM NaCl, 10 mM Na2 PO4, 3 mM KH2 PO4, pH 7.4). Their abdoments were massaged and the buffer containing the cells was recovered. The cells were centrifuged at 300×g for 15 min and washed twice with phosphate-buffered saline. The cells from several rats were pooled for use in the experiments.
Rat peritoneal cells containing about 1×10^5 mast cells per ml were used as the target cells. A 500 μl volume of the cell suspension was incubated with 100 μl volume of the test substance [purified peptide obtained by the method as in Example 1, or human lactoferrin (Sigma Chemical Co.), or bovine lactoferrin (Morinaga Milk industry Co.)] at 37° C. for 3O min. Thereafter, histamine release from the mast cells was induced by the addition of calcium ionophore A23187 (Sigma Chemical Co.) at a final concentration of 5 μM. After 10 min of incubation the cells were centrifuged at 300×g for 15 min and the supernatant was removed and deproteinized by the addition of 2 ml of HClO4 (2%). The deproteinized sample was then centrifuged at 2000×g for 20 min and the histamine content in the supernatant was determined by the fluorophotometric analyser technique (AutoAnalyzer: Technikon). Cells in the presence of phosphate-buffered saline served as control.

[2] = system: human polymorphonuclear neutrophils; test: Test 3: leukotriene release from human polymorphonuclear neutrophils induced by calcium ionophore A23187; conditions: for Leukotriene released (ng) B4 / Leukotriene released (ng) C4 / Leukotriene released (ng) 20-COOH / Leukotriene released (ng) 20-OH: A23187 5 μM; for Leukotriene released (ng) B4: saline control 12; for Leukotriene released (ng) C4: saline control 18; for Leukotriene released (ng) 20-COOH: saline control 31; for Leukotriene released (ng) 20-OH: saline control 55; for Leukotriene released (ng) (Total B4): sum of B4, 20-OH and 20-COOH, saline control 98; for activity to promote the release of leukotriene B4 from polymorphonuclear neutrophils (in words): 1 to 100 ppm
Procedure: This test was performed to study the activity of the peptide of the present invention to promote the release of leukotriene B4 from human polymorphonuclear neutrophils induced by the calcium ionophore A23187.
Human polymorphonuclear neutrophils were prepared by fractionation of leukocytes from heparinized blood of healthy donors on a Ficoll-metrizoategradient followed by dextran sedimentation. The cells were centrifuged at 300×g, and washed three times with phosphate-buffered saline, after which less than 2% of the platelets remained. Erythrocytes were removed by exposing the cells to hypotonic conditions. The purity of the polymorphonuclear neutrophil fraction used was greater than 97% as confirmed by light microscopy.
For analysis of leukotriene release, human neutrophils suspended in phosphate-buffered saline at approximately 1×10^7 cells per ml were used as the target cells. The cells were incubated for 30 min in the presence of test substance [(purified peptide obtained by the method as in Example 1, or human lactoferrin (Sigma Chemical Co.), or bovine lactoferrin (Morinaga Milk Industry Co.)]. Leukotriene release from the neutrophils was then induced by the addition of calcium ionophore A23187 (Sigma chemical Co.) at a final concentration of 5 μM. After 30 min, the supernatants of the stimulated cells were deproteinized by addition of 2 ml of methanol-acetonitrile (1:1) overlaid with nitrogen and frozen for 12 h at -70° C. After centrifugation at 1000×g for 15 min the supernatant was evaporated to dryness in a freeze dryer, suspended in 0.5 ml of methanol-water (30:70), overlaid with nitrogen, and stored overnight at -70° C. The samples were centrifuged at 1000×g and the supernatant was assayed for the presence of leukotrienes by high pressure liquid chromatography using a reverse-phase column of Nucleosil (C18; 5 μm particles) at a column temperature of 40° C. The solvent system was a mixture of phosphate buffer (17 mM K2 HPO4 containing 0.05% EDTA), acetonitrile, and methanol (50:30:20) adjusted to pH 5.0 with phosphoric acid. The absorbance at 280 nm of the column effluent was monitored and recorded. The concentration of each eluted leukotriene was determined from the peak area by means of a computing integrator. The leukotrienes were identified from their retention times with reference to known standards. The minimum detectable quantity was 1 ng in each instance.

[3] = system: rat peritoneal mast cells; test: Test 2: histamine release from rat peritoneal mast cells induced by α-toxin-producing Staphylococcus aureus cells; conditions: for Histamine release (Relative %): S. aureus 121 about 1.0×10^8 cells per ml, control (saline) = 100; for activity to promote the release of histamine from mast cells induced by α-toxin-producing Staphylococcus aureus cells (in words): 1 to 100 ppm
Procedure: This test was performed to study the activity of the peptide of the present invention to promote the release of histamine from rat peritoneal mast cells induced by α-toxin-producing Staphylococcus aureus cells.
Staphylococcus aureus 121, an α-toxin-producing strain, was cultured overnight in Brain Heart Infusion broth at 37° C. The bacterial cells were collected by centrifugation at 4000×g for 20 min, washed with phosphate-buffered saline, and suspended in the same buffer for use in the experiment. Rat peritoneal cells were prepared as in Test 1.
The same method as in Test 1 was used, except histamine release from the mast cells was induced by the addition of α-toxin-producing Staphylococcus aureus cells at a final concentration of about 1.0×10^8 cells per ml.

Molecule	Histamine release (Relative %) ([1]; 1 ppm test substance)	activity to promote the release of histamine from mast cells induced by A23187 (in words) [1]	Histamine release (Relative %) ([1]; 10 ppm test substance)	Histamine release (Relative %) ([1]; 100 ppm test substance)	Leukotriene released (ng) B4 ([2]; 1 ppm test substance)	Leukotriene released (ng) C4 ([2]; 1 ppm test substance)	Leukotriene released (ng) 20-COOH ([2]; 1 ppm test substance)	Leukotriene released (ng) 20-OH ([2]; 1 ppm test substance)	Leukotriene released (ng) (Total B4) ([2]; 1 ppm test substance)	activity to promote the release of leukotriene B4 from polymorphonuclear neutrophils (in words) [2]	Leukotriene released (ng) B4 ([2]; 10 ppm test substance)	Leukotriene released (ng) C4 ([2]; 10 ppm test substance)	Leukotriene released (ng) 20-COOH ([2]; 10 ppm test substance)	Leukotriene released (ng) 20-OH ([2]; 10 ppm test substance)	Leukotriene released (ng) (Total B4) ([2]; 10 ppm test substance)	Leukotriene released (ng) B4 ([2]; 100 ppm test substance)	Leukotriene released (ng) C4 ([2]; 100 ppm test substance)	Leukotriene released (ng) 20-COOH ([2]; 100 ppm test substance)	Leukotriene released (ng) 20-OH ([2]; 100 ppm test substance)	Leukotriene released (ng) (Total B4) ([2]; 100 ppm test substance)	also measured
lactoferrin, bovine: bovine lactoferrin (Morinaga Milk industry Co.) (protein, UniProt P24627 20-708, looked up) Lactotransferrin: APRKNVRWCTISQPEWFKCRRWQWRMKKLGAPSITCVRRAFALECIRAIAEKKADAVTLDGGMVFEAGRDPYKLRPVAAEIYGTKESPQTHYYAVAVVKKGSNFQLDQLQGRKSCHTGLGRSAGWIIPMGILRPYLSWTESLEPLQGAVAKFFSASCVPCIDRQAYPNLCQLCKGEGENQCACSSREPYFGYSGAFKCLQDGAGDVAFVKETTVFENLPEKADRDQYELLCLNNSRAPVDAFKECHLAQVPSHAVVARSVDGKEDLIWKLLSKAQEKFGKNKSRSFQLFGSPPGQRDLLFKDSALGFLRIPSKVDSALYLGSRYLTTLKNLRETAEEVKARYTRVVWCAVGPEEQKKCQQWSQQSGQNVTCATASTTDDCIVLVLKGEADALNLDGGYIYTAGKCGLVPVLAENRKSSKHSSLDCVLRPTEGYLAVAVVKKANEGLTWNSLKDKKSCHTAVDRTAGWNIPMGLIVNQTGSCAFDEFFSQSCAPGADPKSRLCALCAGDDQGLDKCVPNSKEKYYGYTGAFRCLAEDVGDVAFVKNDTVWENTNGESTADWAKNLNREDFRLLCLDGTRKPVTEAQSCHLAVAPNHAVVSRSDRAAHVKQVLLHQQALFGKNGKNCPDKFCLFKSETKNLLFNDNTECLAKLGGRPTYEEYLGTEYVTAIANLKKCSTSPLLEACAFLTR	105 ± 25 Relative %	little, if any, such activity	110 ± 20 Relative %	125 ± 25 Relative %	9 ng	17 ng	41 ng	50 ng	100 ng	little, if any, such activity	11 ng	15 ng	36 ng	60 ng	107 ng	11 ng	15 ng	35 ng	59 ng	105 ng	Histamine release (Relative %) ([3]; 1 ppm test substance): 150 ± 10 Relative %; activity to promote the release of histamine from mast cells induced by α-toxin-producing Staphylococcus aureus cells (in words) [3]: little, if any, such activity; Histamine release (Relative %) ([3]; 10 ppm test substance): 160 ± 10 Relative %; Histamine release (Relative %) ([3]; 100 ppm test substance): 110 ± 15 Relative %
lactoferrin, human: human lactoferrin (Sigma Chemical Co.) (protein, UniProt P02788 20-710, looked up) Lactotransferrin: GRRRSVQWCAVSQPEATKCFQWQRNMRKVRGPPVSCIKRDSPIQCIQAIAENRADAVTLDGGFIYEAGLAPYKLRPVAAEVYGTERQPRTHYYAVAVVKKGGSFQLNELQGLKSCHTGLRRTAGWNVPIGTLRPFLNWTGPPEPIEAAVARFFSASCVPGADKGQFPNLCRLCAGTGENKCAFSSQEPYFSYSGAFKCLRDGAGDVAFIRESTVFEDLSDEAERDEYELLCPDNTRKPVDKFKDCHLARVPSHAVVARSVNGKEDAIWNLLRQAQEKFGKDKSPKFQLFGSPSGQKDLLFKDSAIGFSRVPPRIDSGLYLGSGYFTAIQNLRKSEEEVAARRARVVWCAVGEQELRKCNQWSGLSEGSVTCSSASTTEDCIALVLKGEADAMSLDGGYVYTAGKCGLVPVLAENYKSQQSSDPDPNCVDRPVEGYLAVAVVRRSDTSLTWNSVKGKKSCHTAVDRTAGWNIPMGLLFNQTGSCKFDEYFSQSCAPGSDPRSNLCALCIGDEQGENKCVPNSNERYYGYTGAFRCLAENAGDVAFVKDVTVLQNTDGNNNEAWAKDLKLADFALLCLDGKRKPVTEARSCHLAMAPNHAVVSRMDKVERLKQVLLHQQAKFGRNGSDCPDKFCLFQSETKNLLFNDNTECLARLHGKTTYEKYLGPQYVAGITNLKKCSTSPLLEACEFLRK	115 ± 20 Relative %	little, if any, such activity	110 ± 10 Relative %	100 ± 10 Relative %	11 ng	12 ng	41 ng	80 ng	131 ng	little, if any, such activity	10 ng	13 ng	26 ng	50 ng	86 ng	10 ng	17 ng	26 ng	42 ng	76 ng	Histamine release (Relative %) ([3]; 1 ppm test substance): 180 ± 5 Relative %; activity to promote the release of histamine from mast cells induced by α-toxin-producing Staphylococcus aureus cells (in words) [3]: little, if any, such activity; Histamine release (Relative %) ([3]; 10 ppm test substance): 115 ± 15 Relative %; Histamine release (Relative %) ([3]; 100 ppm test substance): 120 ± 20 Relative %
